Source: the RNAGym collection of RNA variant scans (doi:10.7554/elife.80360)

B1: Hairpin Ribozyme (parent)
chain: GUCCUCUUUCACGUGCGCGUGAAAGAGAGAAGUGAACCAGAGAAACACACGUUGUGGUAUAUUACCUGGUA

Variants of: B1
Assay: self-cleavage, relative activity (ratio to wild type); higher = more cleavage; co-transcriptional

Variant | self-cleavage
U20G G29A | 0.0828
U20G G29C | 0.18
U20G A24U | 0.731
A22C A24G | 0.717
U20A U63C | 0.147
G21C G51A | 0.914
U20G G68U | 0.297
U20C A31C | 0.0231
U20C A31G | 0.469
U20G C50G | 0.225
U20C G29C | 0.143
G21C A43G | 0.104
G21C A43C | 0.146
G19U U58C | 0.994
G19U U58G | 0.672
G21A A59C | 0.13
G21A A59U | 0.142
U20A A39C | 0.403
U20A A39G | 0.302
A22C C38G | 0.215
A22C C38U | 0.552

Variant | self-cleavage
U20C G69C | 0.239
U20C G69A | 0.435
U20A A59U | 0.144
U20A A64U | 0.135
U20G C66A | 0.0821
U20G C66G | 0.219
G21A C65G | 0.158
G21A C65U | 0.147
G21A C65A | 0.861
G21A C38A | 0.208
G21A C38G | 0.239
G21A A31U | 0.0982
G21A U60C | 0.956
G21C A26C | 0.164
G19U U70C | 0.722
G19U U70A | 0.773
G21C G56U | 0.268
G21C G56C | 0.209
U20G G51U | 0.916
U20G G51A | 0.909
U20A G27U | 0.203

Variant | self-cleavage
U20C G42C | 0.313
G21A A45U | 0.286
G21U G25A | 0.252
G21U U70C | 0.687
G21U A23U | 0.754
G21U A23G | 0.772
G21C C37U | 0.583
G21C C37A | 0.192
G21A U55A | 0.177
G21A G69A | 0.382
U20C A45G | 0.165
G21A G42C | 0.281
G21A G42A | 0.218
G21A G42U | 0.249
G21C U63C | 0.196
G21U A49G | 0.408
G21C G69C | 0.265
G19U U55A | 0.287
G19U U55G | 0.313
G21A A26G | 0.658
G21A A26U | 0.525

Variant | self-cleavage
G21A A49G | 0.469
G21A A49C | 0.233
G21C A28U | 0.31
U20G A47U | 0.0722
U20G A45G | 0.128
G21C C66A | 0.27
G21C C66U | 0.576
G21A G32U | 0.0748
G21A G32A | 0.193
U20A U62G | 0.195
U20A U62C | 0.446
G21A A35G | 0.729
G21C U60C | 0.851
G21C U60A | 0.744
U20C C66G | 0.152
G21C G27C | 0.134
U20C G40U | 0.19
U20C G40A | 0.314
U20G G54A | 0.417
U20G G54U | 0.595
